We go through one molecule from patent US11685791B2, “Antibody binding specifically to N-terminal region of lysyl-tRNA synthetase exposed on cell membrane” (Zymedi Co., Ltd., priority 2017, dated 2023).

Assay [1] concerns pulmonary arterial hypertension (PAH) models. The assay is described as follows: Echocardiography in PAH model. The format is in vivo, rat. Conditions: MCT PAH rats, five animals per group.
Description: To induce PAH in seven-week-old SD rats (Orient Bio), 60 mpk of monocrotaline (MCT) was subcutaneously injected. […] All antibodies were i.v. injected twice a week, and sildenafil was orally administered every day.
Assay [2] deals with monocyte/macrophage infiltration into lung tissues (CD68). The assay is described as follows: IHC staining of CD68 in lung tissues of PAH model. Conditions: PAH rats, 1 mpk or 10 mpk, 3 weeks. Type of assay: in vivo, rat. The method, then:
The collected lungs were fixed in paraformaldehyde (PFA) according to the ordinary procedure, and then paraffin-infiltrated and embedded through washing, dehydration, and clearing. The rat lung tissue paraffin blocks were micro-sectioned to a thickness of 6 μm, and slides were manufactured. Thereafter, staining was performed as below. The sample was first treated with xylene for 5 min three times, treated with 100% ethanol, 95% ethanol, 90% ethanol, and 70% ethanol, and DW in that order for 2 min, and washed with PBS for 5 min. After 0.3% H2O2 treatment, the sample was washed with PBS for 5 min twice. The sample was immersed in 0.01 M citrate buffer, heated, and washed with PBS-T (0.03% Tween 20). Thereafter, the sample was blocked (2% BSA & 2% goat serum in PBS) at room temperature for 30 min. The sample was stained with anti-CD68 antibody (1:200, ED1 clone, Abcam) at 4° C. overnight. The sample was washed with PBS-T for 5 min three times, and then treated with polymer-HRP anti-mouse envision kit (DAKO) at 4° C. for 1 h. The sample was washed with PBS-T three times, and then color-developed by the treatment with DAB substrate buffer and DAB chromogen 20. The stained tissue was treated with Mayer's hematoxylin (Sigma) for 1 min, and then treated with 70% ethanol, 90% ethanol, 95% ethanol, and 100% ethanol in that order for 2 min each twice. […]

For assay [3], the target named is T1, KRS (Homo sapiens, UniProt Q15046).
T1 construct: endogenous in cells; host or cells: HCT116
T1 sequence (Q15046 whole entry): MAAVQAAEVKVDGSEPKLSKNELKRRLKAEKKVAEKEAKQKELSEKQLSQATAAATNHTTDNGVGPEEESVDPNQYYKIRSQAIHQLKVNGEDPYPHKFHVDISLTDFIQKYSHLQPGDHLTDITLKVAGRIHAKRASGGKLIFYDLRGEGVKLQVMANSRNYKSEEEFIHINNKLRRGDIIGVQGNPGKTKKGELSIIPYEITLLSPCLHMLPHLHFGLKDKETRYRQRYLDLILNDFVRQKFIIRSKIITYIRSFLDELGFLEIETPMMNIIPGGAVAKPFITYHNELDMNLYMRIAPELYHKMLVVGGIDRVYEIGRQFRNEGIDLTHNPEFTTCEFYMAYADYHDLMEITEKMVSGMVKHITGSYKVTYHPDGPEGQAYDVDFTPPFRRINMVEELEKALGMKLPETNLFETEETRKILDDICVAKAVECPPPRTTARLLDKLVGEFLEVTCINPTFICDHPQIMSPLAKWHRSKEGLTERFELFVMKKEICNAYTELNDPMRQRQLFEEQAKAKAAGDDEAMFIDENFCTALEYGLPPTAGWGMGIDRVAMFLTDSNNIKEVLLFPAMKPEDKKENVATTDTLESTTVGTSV
Description: Western blotting and immunoprecipitation of converted IgGs. The format is binding. Conditions: HCT116 cell lysate. In general terms: In western blotting, separated proteins are transferred to a membrane and probed.

Assay [4] relates to rat KRS N-terminal peptide fragments (rF1-rF5). The assay is described as follows: SPR (Biacore T200) of immobilized N3 IgG against rat KRS N-terminal peptide fragments. The format is binding. On the procedure:
In the same manner as the experimental method described in Example 4-1 above, N3 IgG antibody was immobilized on the chip by using an amine coupling kit (GE Healthcare). Then, the peptides shown in Table 4 above dissolved in PBS solution at corresponding concentrations were allowed to flow for 60 s, and PBS was allowed to flow for 5 min. Then, the binding ability was analyzed by Biacore T200 Evaluation software v2.0 (GE Healthcare).

In assay [5] the test system is KRS level in the monocyte/macrophage cell membrane (RAW 264.7 cells). The assay is described as follows: Western blotting of KRS in membrane and cytosol fractions after LN421 treatment. The format is cell-based. Conditions: 100 nM, 24 h, laminin 421 1 μg/ml. On the procedure: RAW 264.7 cells (2×10^6 cell) were incubated for 18 hr, treated with 1 μg/ml of each laminin subtype in serum-free DMEM, and then harvested at 0 h, 12 h, and 24 h. RAW 264.7 cell protein was separated into cytosol and membrane fractions by using the ProteoExtract Subcellular Proteome Extraction Kit (Calbiotech, cat #539790). The obtained protein was electrophoresed, transferred onto PVDF membrane (Milipore), and blocked with 3% skim milk. Thereafter, KRS polyclonal antibody (rabbit, Neomics, Co. Ltd. #NMS-01-0005) was added, followed by incubation for 1 h. After the unbound antibodies were washed out, anti-rabbit secondary antibodies (ThermoFisher Scientific, #31460) were added, followed by incubation. After incubation with the secondary antibodies, film sensitization was carried out using ECL reagent as a substrate in a dark room. The sensitized bands were compared with standard molecule markers to identify bands corresponding to KRS sizes. Na+/K+ ATPase (Abcam) and tubulin (Sigma) antibody were used for plasma membrane and cytosol marker identification, respectively. RAW 264.7 cells were treated with laminin 421 (1 μg/ml) and antibody (100 nM), incubated for 24 h, and harvested. […]

The test system of assay [6] is A549 cells. The assay is described as follows: Transwell cell migration assay (laminin). Type of assay: cell-based, human. Conditions: 100 nM or 500 nM, 24 h, laminin-coated Transwell. On the procedure: Cell migration was measured using a 24-well Transwell chamber with polycarbonate membrane (8.0 μm pore size, Costar) as disclosed in the prior art (Park, S. G. et al., Human lysyl-tRNA synthetase is secreted to trigger pro-inflammatory response, Proc. Natl. Acad. Sci. USA 102, 6356-6361 (2005)). In the Transwell chamber, the lower well was coated with 10 μg of laminin (in gelatin) and dried with UV. Thereafter, A549 cells were suspended in serum-free RPIM media, and then placed at a concentration of 1×10^5 cells per well in the upper chamber. The chamber was treated with N3 IgG or human mock IgG (control) at 100 nM or 500 nM, followed by incubation for 24 h. Thereafter, the chamber was washed twice with PBS, and treated with 70% MeOH (in PBS) for 30 min. The chamber was again washed twice with PBS, and treated with Hematoxylin solution for 30 min. The chamber was washed three times with DW, and the membrane in the chamber was cut and mounted on the slide glass.

B1: N3 IgG: IgG converted from N3 scFv; VH SEQ ID NO: 49, VL SEQ ID NO: 51; binds KRS N-terminal region (antibody, V domains shown)
VH: EVQLLESGGGLVQPGGSLRLSCAASGFTFSSYDMSWVRQAPGKGLEWVSAISYDNGNTYYADSVKGRFTISRDNSKNTLYLQMNSLRAEDTAVYYSARMALDFDYWGQGTLVTVSS
VL: QSVLTQPPSASGTPGQRVTISCTGSSSNIGSNYVTWYQQLPGTAPKLLIYDNSNRPSGVPDRFSGSKSGTSASLAISGLRSEDEADYYCASWDDSLSAYVFGGGTKLTVL
B1: the “D-shaped left ventricle finding indicating pressure overload in the right ventricle” value in assay [1] is “not observed”. The “monocyte/macrophage infiltration into lung tissues (CD68 IHC)” value in assay [2] is reported as “explicitly reduced”. Further, in assay [3], the “KRS binding ability (western blotting and immunoprecipitation)” value is on record as “bound to KRS”. For the same molecule, the “relative binding ability, epitope F3 vs F1 (rat)” value in assay [4] was “stronger binding ability to epitope F3 than F1”. Further, the “binding to rat KRS N-terminal epitopes F1-F5 (SPR)” value in assay [4] (F2 and F4 data not shown) was “bound to epitopes F1, F2, F3, and F4 of human (h), mouse (m), and rat (r) but not epitope F5”. Moreover, the “KRS level in the cell membrane” value in assay [5] is given as “effectively reduced”. For the same molecule, in assay [6], the “inhibition of cell migration” value was “significantly inhibited”.
